B1: Apt-PDGF-2bp (structured_DNA)
DNA: ATGTCAACGTTGGCTACGGCACGTAGAGCATCACCATGATCCTTGGATAGGTAGGGTACGCT
B2: Apt-Thr-3bp (= Apt-Thr-OR, Apt-Thr-NOT) (structured_DNA)
DNA: ATGTCAACGTTGTCCGTGGTAGGGCAGGTTGGGGTGACTTGGATAGGTAGGGTACGCT

Key:
PDGF-BB = PDGF-BB (human, UniProt P01127 82-190); assay: strand-displacement fluorescence (Rep-2); 50 nM PDGF; 5 mM Mg2+; 20 mM Tris-HCl pH 7.5 (22 °C), 100 mM NaCl, 0.1 mM EDTA, 5 mM MgCl2 (20 mM MgCl2 for DNAzyme), room temperature; indirect read-out by strand-displacement fluorescence; details: protein: recombinant; chain copies: 2; hairpin, 2-bp stem
Thrombin = Thrombin (UniProt P00734;P00734 328-363;364-622); assay: strand-displacement fluorescence (Rep-2); 2-500 nM thrombin; LOD 0.96 nM; 5 mM Mg2+; 20 mM Tris-HCl pH 7.5 (22 °C), 100 mM NaCl, 0.1 mM EDTA, 5 mM MgCl2 (20 mM MgCl2 for DNAzyme), room temperature; indirect read-out by strand-displacement fluore

PDGF-BB, sequence (P01127 82-190): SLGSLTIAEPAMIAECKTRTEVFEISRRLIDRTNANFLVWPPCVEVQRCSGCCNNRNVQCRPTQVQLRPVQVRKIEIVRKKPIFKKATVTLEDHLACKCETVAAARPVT

Binder	binding result (PDGF-BB)	binding result (Thrombin)
B1	binds	–
B2	–	binds

From paper PMC8329073, “A kinetically controlled platform for ligand-oligonucleotide transduction”
